Data on four proteins can be found in US20020168748.

Data set [1] deals with 1,3-β-glucan synthase (GS) complex, P38631.
The target in data set [2] is T1, CaRho1 (Candida Rho1-like GTPase).
T1 chain: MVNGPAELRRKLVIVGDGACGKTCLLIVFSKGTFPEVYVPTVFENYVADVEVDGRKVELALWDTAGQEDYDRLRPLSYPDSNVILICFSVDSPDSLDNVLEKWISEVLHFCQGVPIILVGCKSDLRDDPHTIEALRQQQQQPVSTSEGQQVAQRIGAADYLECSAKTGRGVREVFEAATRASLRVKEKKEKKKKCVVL

Data set [3] concerns the target T2, peptide GKKKKKKSKTKCVIM (C-terminus of K-ras4B).
T2 chain: GKKKKKKSKTKCVIM

The target of another data set is T3, peptide GCVLL.
T3 chain: GCVLL

Data set [4] addresses T4, peptide LQARRGKKKSGCLVL (C-terminus of huRhoA).
T4 chain: LQARRGKKKSGCLVL

For data set [5], the target named is T5, peptide RVKEKKEKKKKCVVL (C-terminus of CaRho1).
T5 chain: RVKEKKEKKKKCVVL

By Km is commonly meant the concentration of substrate that gives half-maximal velocity.

Sequence of human RhoA, P61586 (P61586 whole entry): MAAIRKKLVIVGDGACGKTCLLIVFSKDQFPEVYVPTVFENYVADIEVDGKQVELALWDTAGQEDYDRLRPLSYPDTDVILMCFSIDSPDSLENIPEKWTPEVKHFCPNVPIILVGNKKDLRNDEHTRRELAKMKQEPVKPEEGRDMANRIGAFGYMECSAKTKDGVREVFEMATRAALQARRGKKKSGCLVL
Sequence of H-RasCVLL, P01112 (P01112 whole entry, looked up): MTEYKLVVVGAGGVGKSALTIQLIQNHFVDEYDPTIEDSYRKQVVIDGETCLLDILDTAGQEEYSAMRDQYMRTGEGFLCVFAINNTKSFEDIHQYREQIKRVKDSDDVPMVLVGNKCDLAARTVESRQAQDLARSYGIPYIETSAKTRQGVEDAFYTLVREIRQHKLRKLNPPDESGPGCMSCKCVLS
Sequence of 1,3-β-glucan synthase (GS) complex, P38631 (P38631 whole entry, looked up, one chain of several): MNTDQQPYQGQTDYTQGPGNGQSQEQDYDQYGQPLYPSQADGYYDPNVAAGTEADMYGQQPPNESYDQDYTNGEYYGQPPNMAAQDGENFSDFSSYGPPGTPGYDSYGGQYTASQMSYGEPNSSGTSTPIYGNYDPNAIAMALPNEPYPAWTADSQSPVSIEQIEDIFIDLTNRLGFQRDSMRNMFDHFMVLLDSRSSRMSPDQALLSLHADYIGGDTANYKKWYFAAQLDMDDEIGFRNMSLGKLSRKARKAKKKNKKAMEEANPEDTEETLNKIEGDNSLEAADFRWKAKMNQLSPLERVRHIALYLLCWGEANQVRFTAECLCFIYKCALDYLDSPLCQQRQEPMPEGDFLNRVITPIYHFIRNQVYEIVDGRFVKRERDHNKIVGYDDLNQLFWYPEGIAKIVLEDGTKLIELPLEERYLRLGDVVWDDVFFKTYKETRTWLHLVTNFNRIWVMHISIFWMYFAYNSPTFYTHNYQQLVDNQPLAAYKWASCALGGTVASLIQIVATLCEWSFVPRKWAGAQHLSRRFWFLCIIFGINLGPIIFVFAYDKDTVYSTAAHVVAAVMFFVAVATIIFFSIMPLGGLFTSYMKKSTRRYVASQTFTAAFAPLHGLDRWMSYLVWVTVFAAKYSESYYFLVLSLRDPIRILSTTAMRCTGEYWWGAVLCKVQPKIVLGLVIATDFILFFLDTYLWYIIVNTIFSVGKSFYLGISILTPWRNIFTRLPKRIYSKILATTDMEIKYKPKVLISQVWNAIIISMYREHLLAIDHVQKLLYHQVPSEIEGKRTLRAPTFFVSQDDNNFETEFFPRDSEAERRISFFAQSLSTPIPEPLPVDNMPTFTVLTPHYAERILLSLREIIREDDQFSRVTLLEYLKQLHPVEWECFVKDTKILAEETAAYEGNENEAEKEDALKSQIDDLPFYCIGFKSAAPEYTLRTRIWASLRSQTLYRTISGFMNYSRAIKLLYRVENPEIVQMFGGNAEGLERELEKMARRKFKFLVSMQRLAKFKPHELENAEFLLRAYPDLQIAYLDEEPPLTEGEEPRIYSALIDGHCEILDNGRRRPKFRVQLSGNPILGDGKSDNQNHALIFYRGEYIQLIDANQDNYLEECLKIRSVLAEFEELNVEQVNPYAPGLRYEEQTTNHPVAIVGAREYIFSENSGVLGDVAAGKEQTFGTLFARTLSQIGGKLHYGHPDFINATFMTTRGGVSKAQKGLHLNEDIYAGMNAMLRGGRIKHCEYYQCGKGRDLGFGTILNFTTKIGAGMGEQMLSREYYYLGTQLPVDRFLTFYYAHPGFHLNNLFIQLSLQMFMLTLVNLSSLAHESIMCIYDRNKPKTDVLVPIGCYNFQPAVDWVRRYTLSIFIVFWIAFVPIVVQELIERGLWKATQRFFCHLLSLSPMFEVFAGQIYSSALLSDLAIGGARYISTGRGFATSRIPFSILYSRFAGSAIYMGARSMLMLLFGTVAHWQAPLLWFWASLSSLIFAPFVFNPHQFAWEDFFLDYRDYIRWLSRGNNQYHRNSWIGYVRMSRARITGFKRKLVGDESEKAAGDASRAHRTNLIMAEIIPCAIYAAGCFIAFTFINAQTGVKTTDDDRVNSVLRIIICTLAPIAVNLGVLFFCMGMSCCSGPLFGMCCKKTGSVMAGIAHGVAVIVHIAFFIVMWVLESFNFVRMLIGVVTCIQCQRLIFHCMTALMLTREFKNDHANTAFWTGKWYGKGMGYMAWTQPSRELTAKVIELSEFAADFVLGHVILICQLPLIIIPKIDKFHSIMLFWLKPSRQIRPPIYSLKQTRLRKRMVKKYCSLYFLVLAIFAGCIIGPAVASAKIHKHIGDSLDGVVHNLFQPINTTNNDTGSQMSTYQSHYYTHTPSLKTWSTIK

B1: Recombinant glutathione-S-transferase (GST)-Rho1, preloaded with GTPγS (protein)
chain: MSQQVGNSIRRKLVIVGDGACGKTCLLIVFSKGQFPEVYVPTVFENYVADVEVDGRRVELALWDTAGQEDYDRLRPLSYPDSNVVLICFSIDLPDSLENVQEKWIAEVLHFCQGVPIILVGCKVDLRNDPQTIEQLRQEGQQPVTSQEGQSVADQIGATGYYECSAKTGYGVREVFEAATRASLMGKSKTNGKAKKNTTEKKKKKCVLL
On to B1, for which the “GS activity in rho1-3 membrane fractions at 37° C.” value in data set [1] is given as “GS activity was restored fully by the addition of GTPγS-bound GST-Rho1”.

B2: Recombinant glutathione-S-transferase (GST)-Rho1, preloaded with GDP (protein)
chain: MSQQVGNSIRRKLVIVGDGACGKTCLLIVFSKGQFPEVYVPTVFENYVADVEVDGRRVELALWDTAGQEDYDRLRPLSYPDSNVVLICFSIDLPDSLENVQEKWIAEVLHFCQGVPIILVGCKVDLRNDPQTIEQLRQEGQQPVTSQEGQSVADQIGATGYYECSAKTGYGVREVFEAATRASLMGKSKTNGKAKKNTTEKKKKKCVLL
With B2, in data set [1], the “GS activity in rho1-3 membranes complemented with GST-Rho1” value is reported as “GTPγS could be replaced with GTP, but not GDP”.

B3: S. cerevisiae GGTase (ScGGTase) (protein)
chain 1: MEEYDYSDVKPLPIETDLQDELCRIMYTEDYKRLMGLARALISLNELSPRALQLTAEIIDVAPAFYTIWNYRFNIVRHMMSESEDTVLYLNKELDWLDEVTLNNPKNYQIWSYRQSLLKLHPSPSFKRELPILKLMIDDDSKNYHVWSYRKWCCLFFSDFQHELAYASDLIETDIYNNSAWTHRMFYWVNAKDVISKVELADELQFIMDKIQLVPQNISPWTYLRGFQELFHDRLQWDSKVVDFATTFIGDVLSLPIGSPEDLPEIESSYALEFLAYHWGADPCTRDNAVKAYSLLAIKYDPIRKNLWHHKINNLN
chain 2: MCQATNGPSRVVTKKHRKFFERHLQLLPSSHQGHDVNRMAIIFYSISGLSIFDVNVSAKYGDHLGWMRKHYIKTVLDDTENTVISGFVGSLVMNIPHATTINLPNTLFALLSMIMLRDYEYFETILDKRSLARFVSKCQRPDRGSFVSCLDYKTNCGSSVDSDDLRFCYIAVAILYICGCRSKEDFDEYIDTEKLLGYIMSQQCYNGAFGAHNEPHSGYTSCALSTLALLSSLEKLSDKFKEDTITWLLHRQVSSHGCMKFESELNASYDQSDDGGFQGRENKFADTCYAFWCLNSLHLLTKDWKMLCQTELVTNYLLDRTQKTLTGGFSKNDEEDADLYHSCLGSAALALIEGKFNGELCIPQEIFNDFSKRCCF
For B3, the Km was 80 µM in data set [2]; “NS” in the data set with H-RasCVLL, P01112; below 100 µM with human RhoA, P61586. Further, the “prenylation of the peptide” value in data set [3] is recorded as “+”; with peptide GCVLL, “Human GGTase can prenylate peptides that lack the polylysine region, whereas the fungal GGTases can not”; in data set [4], “+”; in data set [5] it was “+”.

B4: Candida GGTase (CaGGTase), geranylgeranyl protein transferase I purified from Candida cells (protein)
chain 1: MTDSKYDYSDITPVDINTEEPQICQILYDEDYKQIMGLLLALMKAEEYSERALHITELGINELASHYTIWIYRFNILKNLPNRNLYDELDWCEEIALDNEKNYQIWNYRQLIIGRIMELNNNDFDPYREFLILEAMLSSDPKNHHVWSYRKWLVDTFDLHNDAKELSFVDKVIDTDLKNNSAWSHRFFLLFSKKHLATDNTIDEELNYVKDKIVKCPQNPSTWNYLLGIHERFDRSITQLEEFSLQFVDLEKDQVTSSFALETLAKIYTQQKKYNEARTVYDLLKSKYDPIRSNFWDYQISKLTSV
chain 2: MNQLLINKHEKFFNRCLIGLPSTAQSEDSNKLAIIYFCLHGLQLIQKFQFTNQELIYYRNFIINQFMIENNQIISFRSTHYFQKTNQKYDCPNLSSTLFALYNLLILKSPYHTIINRKKIMNFLCKCQVKDGINKGGFVPTLYYDEENGDYKQYGEPDLRVCYMALLIRHLMKYDDNNNNNNREDSNETDIDLISLQQFILDRININGGFSSTIMDESHLGFTFCAIASLKLLNYPLEKLKSTKEWLIHRQVDYPENLYPKDGNGDNYEYYRNIDIGGFNGRENKLSDTCYSWWCTGSLYNIDVNFIKLVDLNKAEDYLLNKTQNQLFGGFGRDPDSTPDPMHSYLALASLSLWNHEKFALQEINPILTITKELYQFFKEEIKY
Turning to B4, the Km in data set [2] was 250 µM; in the data set with H-RasCVLL, P01112, “NS*”; in the data set with human RhoA, P61586, “NS”. The “prenylation of the peptide” value in data set [3] and in data set [5] was “+” each time.
